Reference: publication PMC7913776 (Nucleic Acids Research, 2021)

Target: T1, GST-tagged full-length BACH1 protein (mouse, UniProt P97302 1-739)
T1 sequence: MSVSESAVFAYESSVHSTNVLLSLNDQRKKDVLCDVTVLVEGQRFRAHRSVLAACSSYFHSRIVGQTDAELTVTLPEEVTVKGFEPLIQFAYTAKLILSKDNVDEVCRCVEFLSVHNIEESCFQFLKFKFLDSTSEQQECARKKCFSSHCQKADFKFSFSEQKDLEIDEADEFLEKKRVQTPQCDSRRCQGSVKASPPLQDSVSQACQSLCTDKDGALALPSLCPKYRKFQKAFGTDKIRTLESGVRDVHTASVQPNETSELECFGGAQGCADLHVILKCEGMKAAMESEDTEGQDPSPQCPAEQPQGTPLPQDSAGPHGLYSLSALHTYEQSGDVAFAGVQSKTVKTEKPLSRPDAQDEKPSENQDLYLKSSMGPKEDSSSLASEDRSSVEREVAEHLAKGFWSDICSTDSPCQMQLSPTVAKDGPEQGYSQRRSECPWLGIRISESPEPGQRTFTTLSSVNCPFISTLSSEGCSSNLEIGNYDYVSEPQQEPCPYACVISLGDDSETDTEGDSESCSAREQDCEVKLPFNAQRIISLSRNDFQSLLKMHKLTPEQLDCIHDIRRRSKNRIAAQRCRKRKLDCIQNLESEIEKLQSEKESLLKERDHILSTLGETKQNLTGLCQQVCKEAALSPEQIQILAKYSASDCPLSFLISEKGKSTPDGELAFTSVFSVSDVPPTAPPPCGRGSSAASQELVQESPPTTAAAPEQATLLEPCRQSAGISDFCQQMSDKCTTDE
Test: pull-down

B1: HIS-tagged NANOG (natural protein)
chain: MSVGLPGPHSLPSSEEASNSGNASSMPAVFHPENYSCLQGSATEMLCTEAASPRPSSEDLPLQGSPDSSTSPKQKLSSPEADKGPEEEENKVLARKQKMRTVFSQAQLCALKDRFQKQKYLSLQQMQELSSILNLSYKQVKTWFQNQRMKCKRWQKNQWLKTSNGLIQKGSAPVEYPSIHCSYPQGYLVNASGSLSMWGSQTWTNPTWSSQTWTNPTWNNQTWTNPTWSSQAWTAQSWNGQPWNAAPLHNFGEDFLQPYVQLQQNFSASDLEVNLEATRESHAHFSTPQALELFLNYSVTPPGEI
binding result: binds
